Our source for the Km values is publication PMC8853325.

Substrate in data set [1]: CC(=O)N[C@H]1[C@@H](OP(=O)(O)OP(=O)(O)OCCCCCCCCCCCOc2ccccc2)O[C@H](CO)[C@@H](O)[C@@H]1O[C@H]1O[C@H](C)[C@@H](O)[C@H](O)[C@@H]1O
The data set is described as follows: cells, lysate or membranes. As to conditions: donor GDP-D-[^3H]Rha, 5 mM MnCl2, Tris pH 9, 37 °C.

Substrate in data set [2]: C[C@H]1O[C@H](OCc2ccccc2)[C@@H](O)[C@@H](O)[C@@H]1O
The data set is described as follows: cells, lysate or membranes. As to conditions: donor GDP-D-[^3H]Rha, 5 mM MnCl2, Tris pH 9, 37 °C.

B1: His6-WbpX (Pseudomonas aeruginosa) (protein)
chain: MTRLLVECTYVFEHPKVNSGIQRVVRNVIRELPEADETVECIPVAMLDGTLYQVHSLAPLDPRPHSPLVRLRILVERAANYFWLGQRTLEKRRPFRSSPWARRLLYVACRLFAFAFLSIPLRLLDRILGKQQPAPVRATPLEHRAGDQLVLLDSSWHADFFPLAERLKSEGVGIVSVIYDLIPLTHPQFCDAGLVKVFNHWFDWIAATADGYVAISETIRDEVRAEMLRRIGPEKVAQRWFDYFHLGSELDLVEDGASVEPDLLRMFKAKAPVFLMVSTIEPRKNHGYLLDAFERAWAQGSQARLCIAGRIGWKCEALVERVRQHPELNKRLFMFNDLSDKSLEYAYSHAASLVFPSYVEGFGLPLVEAMQRGLPAMGSDIPVFREIGGEFMAYFDLADPQTLANLVTRFEATGEFPAERPVGEWRWIGWHEASRQLIARILLALGKAPAHGEAVHADCG
Regarding B1, the Km in data set [1] was determined as 220 µM; in data set [2] it was 21 µM.

What is called Km is the substrate concentration at which the rate is half of its maximum.
